# Results as given in patent publication US20250313625A1 (ELPISCIENCE SUZHOU BIOPHARMA, published 2025).
# Read-outs that look alike come from different tables or passages of the source.
# T1: mFc tagged human LAG3 ECD recombinant protein (human, UniProt P18627 23-450)
# T1 construct: extracellular domain; purchased from Biointron; not shown: mouse IgG Fc (mFc) tag
# T1 sequence (looked up): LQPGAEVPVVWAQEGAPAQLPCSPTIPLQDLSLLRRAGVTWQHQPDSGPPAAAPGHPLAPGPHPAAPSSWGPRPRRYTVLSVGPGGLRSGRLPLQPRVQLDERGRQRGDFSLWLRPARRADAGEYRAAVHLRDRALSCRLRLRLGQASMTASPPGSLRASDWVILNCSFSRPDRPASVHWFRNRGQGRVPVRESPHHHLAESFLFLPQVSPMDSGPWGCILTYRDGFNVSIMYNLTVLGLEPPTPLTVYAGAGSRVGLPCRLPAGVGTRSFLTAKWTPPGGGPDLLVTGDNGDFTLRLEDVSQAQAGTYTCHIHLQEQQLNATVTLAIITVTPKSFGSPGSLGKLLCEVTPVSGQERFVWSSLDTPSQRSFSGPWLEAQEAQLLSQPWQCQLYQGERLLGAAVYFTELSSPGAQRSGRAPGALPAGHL
# T2: human LAG3 (form used in Octet, Biacore and HDX-MS not given) (human, UniProt P18627 23-450, limits assumed)
# T2 sequence (looked up): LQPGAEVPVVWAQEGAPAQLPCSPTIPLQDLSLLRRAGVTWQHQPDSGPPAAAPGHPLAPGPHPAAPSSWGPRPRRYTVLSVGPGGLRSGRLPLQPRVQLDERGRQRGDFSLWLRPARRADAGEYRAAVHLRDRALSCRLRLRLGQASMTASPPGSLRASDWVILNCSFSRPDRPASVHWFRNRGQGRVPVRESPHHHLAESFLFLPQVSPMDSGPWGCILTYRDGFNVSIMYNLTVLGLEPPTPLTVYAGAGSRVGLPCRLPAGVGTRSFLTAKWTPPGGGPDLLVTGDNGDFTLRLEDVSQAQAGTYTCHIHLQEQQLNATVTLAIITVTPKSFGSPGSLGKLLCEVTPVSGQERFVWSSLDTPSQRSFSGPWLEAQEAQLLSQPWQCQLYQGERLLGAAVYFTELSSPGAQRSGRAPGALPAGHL
# T3: LAG3 D1 domain extra loop peptide (biotin labelled (site not stated))
# T3 peptide: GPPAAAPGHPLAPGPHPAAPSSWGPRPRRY
# T4: human LAG3 ECD recombinant protein (plate coated, tag not stated) (human, UniProt P18627 23-450)
# T4 construct: extracellular domain
# T4 sequence (looked up): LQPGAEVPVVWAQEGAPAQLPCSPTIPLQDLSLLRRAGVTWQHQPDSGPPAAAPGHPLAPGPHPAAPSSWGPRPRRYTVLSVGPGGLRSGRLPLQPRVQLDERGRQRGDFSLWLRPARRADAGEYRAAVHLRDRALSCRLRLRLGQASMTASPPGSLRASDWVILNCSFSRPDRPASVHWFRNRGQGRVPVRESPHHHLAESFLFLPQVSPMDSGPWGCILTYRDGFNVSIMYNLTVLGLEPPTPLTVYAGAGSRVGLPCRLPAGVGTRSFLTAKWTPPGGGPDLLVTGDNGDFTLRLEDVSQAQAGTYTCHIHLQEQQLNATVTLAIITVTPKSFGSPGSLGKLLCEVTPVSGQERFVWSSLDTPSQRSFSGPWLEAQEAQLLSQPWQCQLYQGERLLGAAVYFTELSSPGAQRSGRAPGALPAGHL
# T5: human LAG3, full length, stably expressed on cells (human, UniProt P18627 23-525)
# T5 construct: whole, on cells; also called CHOK1-human LAG3
# T5 sequence (looked up): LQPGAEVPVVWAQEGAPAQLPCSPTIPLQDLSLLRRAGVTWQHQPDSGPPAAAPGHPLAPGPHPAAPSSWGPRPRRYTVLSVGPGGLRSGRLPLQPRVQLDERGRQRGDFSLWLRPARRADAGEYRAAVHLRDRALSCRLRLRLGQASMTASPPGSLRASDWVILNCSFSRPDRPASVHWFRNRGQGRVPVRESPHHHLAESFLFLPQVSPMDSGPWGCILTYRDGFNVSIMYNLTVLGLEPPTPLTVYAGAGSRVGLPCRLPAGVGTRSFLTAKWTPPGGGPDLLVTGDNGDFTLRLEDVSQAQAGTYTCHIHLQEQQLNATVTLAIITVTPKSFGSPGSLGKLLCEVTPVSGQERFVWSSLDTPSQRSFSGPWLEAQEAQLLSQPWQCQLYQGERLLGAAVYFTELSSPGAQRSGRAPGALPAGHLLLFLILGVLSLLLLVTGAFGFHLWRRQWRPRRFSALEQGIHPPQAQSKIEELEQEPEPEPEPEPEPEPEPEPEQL
# T6: hFc tagged human LAG3 ECD recombinant protein (human, UniProt P18627 23-450)
# T6 construct: range 23-450; also called biotin labelled hFc tagged human LAG3 ECD; not shown: human IgG Fc tag
# T6 sequence (looked up): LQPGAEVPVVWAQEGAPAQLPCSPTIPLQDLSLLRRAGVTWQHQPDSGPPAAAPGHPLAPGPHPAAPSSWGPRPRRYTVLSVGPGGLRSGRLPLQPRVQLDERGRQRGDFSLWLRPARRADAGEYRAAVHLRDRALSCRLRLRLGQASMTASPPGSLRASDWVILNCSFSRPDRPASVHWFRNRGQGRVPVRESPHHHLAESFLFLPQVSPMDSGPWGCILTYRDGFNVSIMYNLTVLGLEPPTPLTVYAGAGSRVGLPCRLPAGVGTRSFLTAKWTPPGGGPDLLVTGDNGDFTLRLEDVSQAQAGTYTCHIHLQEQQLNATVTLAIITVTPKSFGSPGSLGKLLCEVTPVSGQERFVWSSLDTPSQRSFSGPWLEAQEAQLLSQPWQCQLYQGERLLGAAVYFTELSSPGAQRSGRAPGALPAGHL
# Legend:
# [1] = molecular target: T1, mFc tagged human LAG3 ECD recombinant …; test: competitive FACS: mFc tagged human LAG3 ECD binding to MHC II on Raji cells
# Protocol: (§1) Activity of the purified chimeric antibodies to block LAG3 and MHC II interaction was determined by competitive FACS assay. […] After washing, dye labeled anti-mouse Fc 2nd antibody (Sigma) was added and incubated at 37° C. for 1 hour. Fluorescence intensity was detected.
# [2] = molecular target: T2, human LAG3 (form used in Octet, Biacore …); test: BLI (Octet), 1:1 fit
# Protocol: (§2) The association and dissociation curves were fit with 1:1 binding model, and the Ka/Kd/KD values for each antibody were calculated.
# as §2
# [3] = molecular target: T1, mFc tagged human LAG3 ECD recombinant …; test: competitive FACS: mFc tagged human LAG3 ECD binding to MHC II on Raji cells; remark: listed apart in the source
# Protocol: as §1
# [4] = molecular target: T3, LAG3 D1 domain extra loop peptide; test: ELISA format I: biotin labelled LAG3 D1 domain extra loop peptide on plate coated antibody; axis printed as Ab Conc. (nM)
# Protocol: In ELISA binding assay of format I (FIG. 9A), biotin labelled LAG3 D1 domain extra loop peptide was incubated with ELISA microplate coated anti-LAG3 antibodies. After washing, HRP labeled anti-SA 2nd antibody (Sigma) was added and incubated at 37° C. for 1 hour. Then, 100 μl/well of TMB solution (Biotechnology) was added. After incubation for 15 minutes at room temperature, the reaction was stopped by the addition of 50 μl of 1N HCl. OD 450 nm was read. In ELISA binding assay of format II (FIG. 9B), biotin labelled LAG3 D1 domain extra loop peptide and anti-LAG3 antibodies were co-incubated in ELISA microplate coated with SA. After washing, HRP labeled anti-human Fc 2nd antibody (Sigma) was added and incubated at 37° C. for 1 hour. Then, 100 μl/well of TMB solution (Biotechnology) was added. After incubation for 15 minutes at room temperature, the reaction was stopped by the addition of 50 μl of 1N HCl. OD 450 nm was read.
# [5] = molecular target: T4, human LAG3 ECD recombinant protein …; test: competitive ELISA format I: His-FGL1 binding to coated LAG3 ECD
# [6] = molecular target: T5, human LAG3, full length, stably …; test: FACS on 293F cells stably expressing human LAG3
# Protocol: (§3) Briefly the antibodies were incubated with 2×10⁵ target cells at 4° C. for 1 hour. After washing, fluorescence labeled anti-mouse IgG 2nd antibody (Life Technologies) was added and incubated at 4° C. for 1 hour. Geometric median fluorescence intensity (MFI) was detected and EC₅₀ was calculated using GraphPad Prism9.0.
# (§4) MFI was detected and EC₅₀ was calculated using GraphPad Prism9.0.
# [7] = molecular target: T6, hFc tagged human LAG3 ECD recombinant …; test: competitive ELISA format II: biotin hFc-LAG3 ECD binding to coated His-FGL1
# Protocol: After washing, HRP labeled anti-His 2nd antibody (Sigma) was added and incubated at 37° C. for 1 hour. Then, 100 μl/well of TMB solution (Biotechnology) was added. After incubation for 15 minutes at room temperature, the reaction was stopped by the addition of 50 μl of 1N HCl. OD 450 nm was read. […] After washing, HRP labeled anti-SA 2nd antibody (Sigma) was added and incubated at 37° C. for 1 hour. Then, 100 μl/well of TMB solution (Biotechnology) was added. After incubation for 15 minutes at room temperature, the reaction was stopped by the addition of 50 μl of 1N HCl. OD 450 nm was read. […] The competition assay of format III is a competitive FACS assay. […] After washing, dye labeled anti-His 2nd antibody (Sigma) was added and incubated at 37° C. for 1 hour. Fluorescence intensity was detected.
# [8] = molecular target: T2, human LAG3 (form used in Octet, Biacore …); test: BLI (Octet)
# [9] = molecular target: T1, mFc tagged human LAG3 ECD recombinant …; test: competitive FACS: mFc-LAG3 ECD binding to Raji cells (MHC II)
# Protocol: as §1
# [10] = molecular target: T2, human LAG3 (form used in Octet, Biacore …); test: SPR (Biacore), 1:1 fit
# Protocol: as §2
# [11] = molecular target: T5, human LAG3, full length, stably …; test: FACS on 293F cells stably expressing human LAG3; remark: listed apart in the source
# Protocol: as §3, §4
binder,measurement,setting,value
"hu029.55 (antibody, V domains shown, humanized from 029c) VH: QVQLVESGGGLVKPGGSLRLSCAASGFTFSSYAMSWIRQAPGKGLEWVSYVTSGGDYIYYADTVKGRFTISRDDAKNSLYLQMNSLRAEDTAVYYCTRVAYDYEWYFDVWGQGTLVTVSS VL: DIQMTQSPSSVSASVGDRVTITCKASQDVTTAVAWYQQKPGKAPKLLIYSASYRYTGVPSRFSGSGSGTDFTLTISSLQPEDFATYYCQQHDSSPWTFGQGTKLEIK",%Blocking at 2 nM,[1],18.9%
same,%Blocking at 4 nM,[1],37.5%
same,%Blocking at 8 nM,[1],98.8%
same,Kd,[2],4.42 nM
same,koff,[2],0.0197 s⁻¹
same,kon,[2],4.47e+06 M⁻¹ s⁻¹
same,%Blocking at 4 nM,[3],26%
same,%Blocking at 8 nM,[3],96.7%
"hu029.55.S93Q (antibody, V domains shown) VH: QVQLVESGGGLVKPGGSLRLSCAASGFTFSSYAMSWIRQAPGKGLEWVSYVTSGGDYIYYADTVKGRFTISRDDAKNSLYLQMNSLRAEDTAVYYCTRVAYDYEWYFDVWGQGTLVTVSS VL: DIQMTQSPSSVSASVGDRVTITCKASQDVTTAVAWYQQKPGKAPKLLIYSASYRYTGVPSRFSGSGSGTDFTLTISSLQPEDFATYYCQQHDQSPWTFGQGTKLEIK",Kd,[2],4.08 nM
same,koff,[2],0.0207 s⁻¹
same,kon,[2],5.06e+06 M⁻¹ s⁻¹
same,%Blocking at 4 nM,[3],62.8%
same,%Blocking at 8 nM,[3],99.4%
"BAP-050 (antibody, V domains shown, also called BAP-50) VH: QIQLVQSGPELKKPGETVKISCKASGFTLTNYGMNWVRQTPGKGLKWMGWINTDTGEPTYADDFKGRFAFSLETSASTASLQINNLKNADTATYFCARNPPYYYGTNNAEAMDYWGQGTAVTVSS VL: DIQMTQTTSSLSASLGDRVTISCSSSQDISNYLNWYQQKPDGTVKVLIYYTSTLHLGVPSRFSGSGSGTDYSLTISNLELEDIATYYCQQYYNLPWTFGGGTKLEIK",binding result,[4],no binding (tested: about 300 nM)
same,Blocking ratio at 66.7 nM (%),[5],39.3%
same,EC50,[6],1.7 nM
same,TOP MFI,[6],267
"hu023.11 (antibody, human IgG4, V domains shown, humanized from 023c) VH: QVQLVQSGPELKKPGASVKVSCKASGYTFTESPMNWVRQAPGQGFEWMGIIYTDTGEPTYAEEFKGRFVFSLDTSVSTAYLQISSLKAEDTAVYFCVSDYGSILYWYFDVWGQGTLVTVSS VL: DIQMTQSPSSLSASVGDRVTITCKASQDVSTAVAWYQQKPGKSPKLLIYSASYRYTGVPSRFSGSGSGTDFTFTISSLQPEDFATYYCQQHYNAPPTFGQGTKLEIK",IC50,[7],1.2 nM
same,TOP blocking (%),[7],83.9%
same,Kd,[8],0.0782 nM
same,koff,[8],2.37e-05 s⁻¹
same,kon,[8],303000 M⁻¹ s⁻¹
same,IC50,[9],5.8 nM
same,TOP blocking (%),[9],99.3%
same,Kd,[10],0.0205 nM
same,koff,[10],9.1e-05 s⁻¹
same,kon,[10],4.43e+06 M⁻¹ s⁻¹
same,EC50,[11],0.17 nM
same,TOP MFI,[11],3140
